Data as given in PMC3285688, “Active Site Mutations Change the Cleavage Specificity of Neprilysin” (PLoS ONE, 2012).
Substitutions are numbered along the chain they refer to. Names may count otherwise.

B1: NEP^F563V: neprilysin active site mutant, Phe563 to valine (protein, UniProt P08473 2-750, looked up, variant F563V)
Neprilysin: GKSESQMDITDINTPKPKKKQRWTPLEISLSVLVLLLTIIAVTMIALYATYDDGICKSSDCIKSAARLIQNMDATTEPCTDFFKYACGGWLKRNVIPETSSRYGNFDILRDELEVVLKDVLQEPKTEDIVAVQKAKALYRSCINESAIDSRGGEPLLKLLPDIYGWPVATENWEQKYGASWTAEKAIAQLNSKYGKKVLINLFVGTDDKNSVNHVIHIDQPRLGLPSRDYYECTGIYKEACTAYVDFMISVARLIRQEERLPIDENQLALEMNKVMELEKEIANATAKPEDRNDPMLLYNKMTLAQIQNNFSLEINGKPFSWLNFTNEIMSTVNISITNEEDVVVYAPEYLTKLKPILTKYSARDLQNLMSWRFIMDLVSSLSRTYKESRNAFRKALYGTTSETATWRRCANYVNGNMENAVGRLYVEAAFAGESKHVVEDLIAQIREVFIQTLDDLTWMDAETKKRAEEKALAIKERIGYPDDIVSNDNKLNNEYLELNYKEDEYFENIIQNLKFSQSKQLKKLREKVDKDEWISGAAVVNAFYSSGRNQIVFPAGILQPPVFSAQQSNSLNYGGIGMVIGHEITHGFDDNGRNFNKDGDLVDWWTQQSASNFKEQSQCMVYQYGNFSWDLAGGQHLNGINTLGENIADNGGLGQAYRAYQNYIKKNGEEKLLPGLDLNHKQLFFLNFAQVWCGTYRPEYAVNSIKTDVHSPGNFRIIGTLQNSAEFSEAFHCRKNSYMNPEKKCRVW
B2: NEP^F563I: neprilysin active site mutant, Phe563 to isoleucine (protein, UniProt P08473 2-750, looked up, variant F563I)
Neprilysin: B1 Neprilysin with V563I
B3: NEP^F563K: neprilysin active site mutant, Phe563 to lysine (low expressing) (protein, UniProt P08473 2-750, looked up, variant F563K)
Neprilysin: B1 Neprilysin with V563K
B4: NEP^S546T: neprilysin active site mutant, Ser546 to threonine (protein, UniProt P08473 2-750, looked up, variant S546T)
Neprilysin: B1 Neprilysin with S546T, V563F
B5: NEP^S546A: neprilysin active site mutant, Ser546 to alanine (protein, UniProt P08473 2-750, looked up, variant S546A)
Neprilysin: B1 Neprilysin with S546A, V563F
B6: NEP^F563M: neprilysin active site mutant, Phe563 to methionine (protein, UniProt P08473 2-750, looked up, variant F563M)
Neprilysin: B1 Neprilysin with V563M

Legend:
Assay type in all cases: biochemical
[1] = Hydrolysis of synthetic substrate Glut-Ala-Ala-Phe-MNA by NEP and mutants (fluorogenic); conditions: for Specific Activity (Glut-Ala-Ala-Phe-MNA cleavage): 100 µM Glut-Ala-Ala-Phe-MNA, fluorescence ex 340 nm, em 425 nm; for Specific Activity (Glut-Ala-Ala-Phe-MNA cleavage) / Km: 37°C, 20 mM MES buffer, pH 6.5; for Km: Glut-Ala-Ala-Phe-MNA 20 to 500 µM, Michaelis-Menten fit; for Activity relative to wild-type enzyme (Glut-Ala-Ala-Phe-MNA): pH 6.5, 37°C
Method: Reactions of 400 µl contained 100 µM Glut-Ala-Ala-Phe-MNA, 1 µg of aminopeptidase and 15 to 100 ng of NEP or mutant NEP depending on their activity in 20 mM MES buffer, pH 6.5. Activity was monitored with a Spectra Max Gemini XS plate reader using an excitation wavelength of 340 nm and an emission wavelength of 425 nm.
(§1) Kinetic constants for NEP and its mutants were obtained using the assay conditions noted above, but with Glut-Ala-Ala-Phe-MNA varied from 20 to 500 µM. Typically 12 data points were obtained. The data were fit to the Michaelis-Menten equation using Prism4 software. The Ki for insulin B chain was obtained by measuring the rate of Glut-Ala-Ala-Phe-MNA hydrolysis in the presence of varying concentrations of insulin B chain from 1 to 40 µM. Data were fit to a Dixon plot (1/rate versus [insulin B chain]) using Prism4 software and the ID50 obtained as the –x intercept, where ID50 corresponds to the concentration of insulin producing 50% inhibition. The actual Ki was obtained from the equation: ID50 = Ki (1+ [Glut-Ala-Ala-Phe-MNA]/KmGlut-Ala-Ala-Phe-MNA), [33].

insulin B chain [2] = assay: Insulin B chain as alternate substrate (competitive) inhibitor of Glut-Ala-Ala-Phe-MNA hydrolysis (Dixon plot); conditions: insulin B chain 1 to 40 µM as competitive inhibitor of Glut-Ala-Ala-Phe-MNA hydrolysis by the enzyme form, 37°C, 20 mM MES, pH 6.5, ID50 converted to Ki
Method: as §1

leu-ENK [3] = assay: Rate of leu-ENK hydrolysis (HPLC); conditions: for Rate of hydrolysis of leu-ENK: 37°C, 20 mM MES buffer, pH 6.5, disappearance of substrate by HPLC, at least triplicate
Method: (§2) Cleavage of physiological peptides was measured via reverse phase high performance liquid chromatography (HPLC) following incubation of the purified NEP or its mutants with 15 µM insulin B chain (Sigma Aldrich), 24 µM Aß1–40 (Anaspec), or 64 µM leu-ENK (Sigma) in 100 µL of 20 mM MES, pH 6.5, at 37°C. Reactions were run in triplicate. HPLC was carried out in a Vydac C4 column using a linear gradient from 0.1% trifluoroacetic acid (TFA) in 95% water, 5% acetonitrile to 0.1% TFA in 50% acetonitrile/water at a flow rate of 1 mL/min. Peptides and hydrolysis products were detected at 214 nm and quantified by measuring peak areas. Peptides obtained from HPLC were analyzed on an Applied Biosystems 4800 MALDI TOF/TOF Proteomics Analyzer at the University of Kentucky Proteomics core. This facility is supported in part by grant P20RR020171 from the NIH/NCRR.
(§3) Statistical analysis comparing wild-type NEP and its mutants was performed with Prism 4 software using a two-tailed paired t-test with a 95% confidence interval.

insulin B chain [4] = assay: Rate of insulin B chain hydrolysis (HPLC); conditions: 15 µM insulin B chain, 37°C, 20 mM MES buffer, pH 6.5; disappearance of substrate by HPLC; at least triplicate
Method: as §2, §3

Aß1–40 = assay: Rate of Aß1–40 hydrolysis (HPLC); conditions: 24 µM Aß1–40, 37°C, 20 mM MES buffer, pH 6.5; disappearance of substrate by HPLC; at least triplicate
Method: as §2, §3

leu-ENK [5] = assay: Dual substrate assay: leu-ENK hydrolysis in presence of insulin B chain; conditions: 15 µM insulin B chain and 64 µM leu-ENK together, 37°C, 20 mM MES buffer, pH 6.5; for leu-ENK hydrolysis, activity relative to the uninhibited value: numbers in parenthesis
Method: (§4) The rate of cleavage of a substrate mixture is determined by both the kcat for that substrate as well by the affinity for the substrate. […] This is expected, given that each peptide acts as a competitive inhibitor of the other. […] That is the ratio for leu-ENK/insulin B chain cleavage is 3 for NEP^S546E compared to 6 for wild-type NEP.
as §2

insulin B chain [6] = assay: Dual substrate assay: insulin B chain hydrolysis in presence of leu-ENK; conditions: 15 µM insulin B chain and 64 µM leu-ENK together, 37°C, 20 mM MES buffer, pH 6.5; for Insulin B Chain hydrolysis, activity relative to the uninhibited value: numbers in parenthesis
Method: as §4, §2

[7] = test system: leu-ENK and insulin B chain; assay: Dual substrate assay: substrate preference leu-ENK versus insulin B chain; conditions: for Substrate preference leu-ENK/insulin B chain (in words): dual substrate assay, versus wild-type; for Ratio leu-ENK insulin B chain: ratio of rates, 15 µM insulin B chain and 64 µM leu-ENK together
Method: as §4, §2

Row | Activity relative to wild-type enzyme (Glut-Ala-Ala-Phe-MNA) [1] [%] | Ki (insulin B chain [2]) [nM] | Molecule | Specific Activity (Glut-Ala-Ala-Phe-MNA cleavage) [1] [pmol/min/ng] | Km [1] [µM] | leu-ENK cleavage rate as fraction of wild-type rate (leu-ENK [3]; 64 µM leu-ENK) | Rate of hydrolysis of leu-ENK (leu-ENK [3]; 64 µM leu-ENK) [pmol/min/ng] | leu-ENK cleavage rate relative to wild-type NEP rate (leu-ENK [3]; 64 µM leu-ENK, pH 6.5, 37°C) | Increase in preference for leu-ENK (over Aß1–40) (leu-ENK [3]; relative to NEP, from separate single-substrate rates) | Rate of hydrolysis of Insulin B Chain (insulin B chain [4]) [pmol/min/ng] | Rate of hydrolysis of Aß1–40 (Aß1–40) [fmol/min/ng] | leu-ENK hydrolysis rate, dual substrate assay (leu-ENK [5]) [pmol/min/ng] | leu-ENK hydrolysis, activity relative to the uninhibited value (leu-ENK [5]) | Insulin B Chain hydrolysis rate, dual substrate assay (insulin B chain [6]) [pmol/min/ng] | Insulin B Chain hydrolysis, activity relative to the uninhibited value (insulin B chain [6]) | Substrate preference leu-ENK/insulin B chain (in words) [7] | Ratio leu-ENK insulin B chain [7]
1 | ~25 | 1000 ± 100 | B1 | 11.2 ± 0.3 | 51 ± 10 | 1/6 | 0.31 ± 0.02 | less than 20% | two fold | 0.06 ± 0.02 | 14 ± 1 | 0.23 ± 0.03 | 0.74 | 0.04 ± 0.01 | 0.67 | no change in overall substrate preference | 5.8
2 | – | 2500 ± 900 | B2 | 17.7 ± 0.6 | 83 ± 4 | – | 1.06 ± 0.17 | – | – | 0.13 ± 0.02 | 43 ± 1 | 0.62 ± 0.03 | 0.58 | 0.02 ± 0.01 | 0.15 | shift in substrate preference toward leu-ENK | 31.0
3 | < 1 | – | B3 | – | – | – | – | – | – | – | – | – | – | – | – | – | –
4 | – | – | B4 | – | 73 ± 6 | – | – | – | – | – | – | – | – | – | – | – | –
5 | – | – | B5 | – | 118 ± 7 | – | – | – | – | – | – | – | – | – | – | – | –
6 | – | 1200 ± 100 | B6 | 19.2 ± 0.4 | 87 ± 8 | – | 1.21 ± 0.22 | – | – | 0.21 ± 0.01 | 85 ± 3 | 0.69 ± 0.11 | 0.57 | 0.11 ± 0.02 | 0.52 | no change in overall substrate preference | 6.3
